Measured values published in PMC7299280.

What was measured:
[1] = molecular target: SARS-CoV-2 spike (S) protein, recombinant (SARS-CoV-2) (UniProt P0DTC2)
[2] = molecular target: SARS-CoV-2 spike (S) protein, recombinant (SARS-CoV-2) (UniProt P0DTC2); remark: listed apart in the source

CC12.1 (antibody)
in vitro IC50 neutralization against pseudovirus; pair blocked: S with ACE2 [1]: 0.019 µg/mL

CC12.23 (antibody)
IC50 neutralization (pseudovirus) [1]: 22 µg/mL

CC6.33 (antibody)
neutralization IC50 of SARS-CoV-2 pseudovirus (complete neutralization) [2]: 0.039 µg/mL
